{"source": "patent US8148119B2", "about": "“Hydroxylase gene and use thereof” (Microbiopharm Japan Co., Ltd., priority 2006, dated 2012)", "molecules": {"B1": {"name": "VDH: hydroxylase of vitamin D or the like from Pseudonocardia autotrophica, cytochrome P450, amino acid sequence ID No. 2 (protein, listed as Pseudonocardia autotrophica)", "chain": "MALTTTGTEQHDLFSGTFWQNPHPAYAALRAEDPVRKLALPDGPVWLLTRYADVREAFVDPRLSKDWRHTLPEDQRADMPATPTPMMILMDPPDHTRLRKLVGRSFTVRRMNELEPRITEIADGLLAGLPTDGPVDLMREYAFQIPVQVICELLGVPAEDRDDFSAWSSVLVDDSPADDKNAAMGKLHGYLSDLLERKRTEPDDALLSSLLAVSDEDGDRLSQEELVAMAMLLLIAGHETTVNLIGNGVLALLTHPDQRKLLAEDPSLISSAVEEFLRFDSPVSQAPIRFTAEDVTYSGVTIPAGEMVMLGLAAANRDADWMPEPDRLDITRDASGGVFFGHGIHFCLGAQLARLEGRVAIGRLFADRPELALAVGLDELVYRESTLVRGLSRMPVTMGPRSA"}, "B2": {"name": "P450SU-1: cytochrome P450 derived from actinomycete Streptomyces griseolus ATCC 11796, reported to hydroxylate vitamin D3 (protein, UniProt P18326 2-406, looked up)", "Vitamin D3 dihydroxylase": "TDTATTPQTTDAPAFPSNRSCPYQLPDGYAQLRDTPGPLHRVTLYDGRQAWVVTKHEAARKLLGDPRLSSNRTDDNFPATSPRFEAVRESPQAFIGLDPPEHGTRRRMTISEFTVKRIKGMRPEVEEVVHGFLDEMLAAGPTADLVSQFALPVPSMVICRLLGVPYADHEFFQDASKRLVQSTDAQSALTARNDLAGYLDGLITQFQTEPGAGLVGALVADQLANGEIDREELISTAMLLLIAGHETTASMTSLSVITLLDHPEQYAALRADRSLVPGAVEELLRYLAIADIAGGRVATADIEVEGHLIRAGEGVIVVNSIANRDGTVYEDPDALDIHRSARHHLAFGFGVHQCLGQNLARLELEVILNALMDRVPTLRLAVPVEQLVLRPGTTIQGVNELPVTW"}, "B3": {"name": "Human CYP27A1: human cytochrome P450 known to have hydroxylation activity at 25-position of vitamin D3 (protein, UniProt Q02318 34-531, looked up)", "Sterol 26-hydroxylase, …": "ALPSDKATGAPGAGPGVRRRQRSLEEIPRLGQLRFFFQLFVQGYALQLHQLQVLYKAKYGPMWMSYLGPQMHVNLASAPLLEQVMRQEGKYPVRNDMELWKEHRDQHDLTYGPFTTEGHHWYQLRQALNQRLLKPAEAALYTDAFNEVIDDFMTRLDQLRAESASGNQVSDMAQLFYYFALEAICYILFEKRIGCLQRSIPEDTVTFVRSIGLMFQNSLYATFLPKWTRPVLPFWKRYLDGWNAIFSFGKKLIDEKLEDMEAQLQAAGPDGIQVSGYLHFLLASGQLSPREAMGSLPELLMAGVDTTSNTLTWALYHLSKDPEIQEALHEEVVGVVPAGQVPQHKDFAHMPLLKAVLKETLRLYPVVPTNSRIIEKEIEVDGFLFPKNTQFVFCHYVVSRDPTAFSEPESFQPHRWLRNSQPATPRIQHPFGSVPFGYGVRACLGRRIAELEMQLLLARLIQKYKVVLAPETGELKSVARIVLVPNKKVGLQFLQRQC"}}, "key": {"[1]": {"target": "T1, VDH (Pseudonocardia autotrophica, UniProt C4B644)", "T1 construct": "there was no mutation of the VDH gene and the VDH gene was inserted in the designated site; made in house; host or cells: Escherichia coli BL21(DE3), cell-free extract", "T1 sequence (C4B644 2-403)": "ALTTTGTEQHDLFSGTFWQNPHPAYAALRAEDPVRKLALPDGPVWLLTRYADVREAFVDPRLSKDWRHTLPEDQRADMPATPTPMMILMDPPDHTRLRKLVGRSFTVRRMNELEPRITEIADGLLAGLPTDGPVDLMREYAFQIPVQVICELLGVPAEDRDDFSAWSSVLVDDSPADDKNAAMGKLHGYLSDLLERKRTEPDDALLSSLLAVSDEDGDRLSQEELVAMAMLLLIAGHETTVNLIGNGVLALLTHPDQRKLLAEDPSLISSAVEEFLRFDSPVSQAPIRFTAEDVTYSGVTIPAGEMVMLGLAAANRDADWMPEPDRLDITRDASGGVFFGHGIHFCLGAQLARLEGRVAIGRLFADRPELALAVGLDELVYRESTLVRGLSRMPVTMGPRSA", "assay": "Reduced-CO difference spectral analysis, VDH expression in Escherichia coli BL21(DE3) transformants", "procedure": "First, the cell suspension obtained by the method previously described was subjected to cell disruption at 4° C. using 0.1 mm glass beads by a cell disruptor, Multi-beads shocker (manufactured by Yasui Kikai Corporation). In the cell disruption, ten cycles of 30-second shaking at 2500 rpm and a 30-second break were conducted. The cell-disrupted solution was centrifuged at 12000 rpm for 10 minutes to thereby obtain a cell-free extract. 700 μl of the cell-free extract was transferred into each of two test tubes with caps and carbon monoxide was purged into one of the tubes. Then, a small amount of sodium hydrosulfite was added to the cell-free extract in both of the tubes. Taking the absorption spectrum at from 400 nm to 500 nm of the sample without the purge of carbon monoxide as the baseline level, the absorption spectrum at from 400 to 500 nm of the sample purged with carbon monoxide was scanned using a spectrophotometer (U-3210 SpectrophotoMeter manufactured by HITACHI, Ltd.).\nFirst, the cell suspension of transformed Escherichia coli BL21(DE3)/pVDH-thcCD obtained by the method previously described was subjected to cell disruption at 4° C. using 0.1 mm glass beads by a cell disruptor, Multi-beads shocker (manufactured by Yasui Kikai Corporation). In the cell disruption, ten cycles of 30-second shaking at 2500 rpm and a 30-second break were conducted. […]"}, "[2]": {"assay": "VD3 conversion in reconstituted system (cell-free extract or purified VDH plus redox partner)", "format": "biochemical"}, "[3]": {"settings": "cited from earlier work"}, "[4]": {"settings": "cited from earlier work", "remark": "listed apart in the source"}}, "note": "Entries after “also recorded” stand apart in the source; their conditions may differ. Read-outs that look alike come from different tables or passages of the source."}
{"molecule": "B1", "values": [{"measurement": "Estimated concentration of VDH per culture", "setting": "[1]; Escherichia coli BL21(DE3)/pVDH-camAB", "result": 113, "unit": "nM"}, {"measurement": "VDH expression per culture fluid", "setting": "[1]; Escherichia coli BL21(DE3)/pVDH-thcCD", "result": 258, "unit": "nM"}, {"measurement": "Hydroxides of VD3 detected by HPLC", "setting": "[2]; ferredoxin and ferredoxin reductase derived from spinach, 10 μM VD3, 30° C.", "result": "a reaction proceeds; also recorded: converting VD3 to HVD, DHVD and THVD"}, {"measurement": "Reaction in reconstituted system with putidaredoxin and putidaredoxin reductase", "setting": "[2]; redox partner derived from Pseudomonas putida", "result": "electron transfer reaction did not proceed"}]}
{"molecule": "B2", "values": [{"measurement": "Hydroxylation of vitamin D3 to 25-hydroxy vitamin D3 and of 25-hydroxy vitamin D3 to 1α,25-hydroxy vitamin D3", "setting": "[3]; reported by Sawada et al. 2004", "result": "weak activity"}]}
{"molecule": "B3", "values": [{"measurement": "Km", "setting": "[3]; literature values (Sawada et al. 2004), read-out: Km for VD3", "result": 3.2, "unit": "µM"}, {"measurement": "Vmax for VD3", "setting": "[3]; literature values", "result": "270 mmol/min/mol of P450"}, {"measurement": "Km", "setting": "[4]; literature values (Sawada et al.; Uchida et al.), read-out: Km for 25-OH VD3", "result": 3.5, "unit": "µM"}, {"measurement": "Vmax for 25-OH VD3", "setting": "[4]; literature values", "result": "21 mmol/min/mol of P450"}]}
